{"source": "the RNAGym collection of RNA variant scans (doi:10.1073/pnas.2313332121)", "parents": {"B1": {"name": "TPR 5TU (parent)", "chain": "GGAUCUUCUCGAUCUAACAAAAAAGACAAAUCUGCCACAAAGCUUGAGAGCAUCUUCGGAUGCAGAGGCGGCAGCCUUCGGUGGCGCGAUAGCGCCAACGUUCUCAACUAUGACACGCAAAACGCGUGCUCCGUUGAAUGGAGUUUAUCAUG"}}, "note": "This sample holds only a part of the variants without activity."}
{"variants_of": "B1", "test": "polymerase ribozyme fitness, log enrichment relative to wild type (log ratio); higher = more active; in vitro selection for triplet polymerase activity", "in_short": "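Input and output libraries were sequenced on Illumina after a single in vitro selection round, run in triplicate on PCR-built, transcribed mutant libraries of each subunit of a heterodimeric triplet polymerase ribozyme. Selection annealed libraries to a biotinylated primer, the partner subunit and triplets, incubated them frozen at −7 °C, then gel-excised extended constructs for streptavidin-bead capture and RT-PCR. Genotypes with ≥10 input reads and ≥1 read per output were kept. Fitness is the logarithm, taken in base 2, of genotype enrichment divided by wild-type enrichment, using inverse-variance-weighted replicate averages.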"}
{"variant": "U7A C96U", "polymerase ribozyme fitness (log ratio)": -2.73}
{"variant": "C5G C96G G141U", "polymerase ribozyme fitness (log ratio)": -0.469}
{"variant": "U7A G42U C76G C96G C99A U144A C149G", "polymerase ribozyme fitness (log ratio)": "≤ -4.2"}
{"variant": "U7G U31A C57U G94C U135C G140U U148C", "polymerase ribozyme fitness (log ratio)": "≤ -4.2"}
{"variant": "U7G C14G U55G G58U G80C A107G C118U G140C", "polymerase ribozyme fitness (log ratio)": "≤ -4.2"}
{"variant": "U7G U55A", "polymerase ribozyme fitness (log ratio)": -3.28}
{"variant": "U6C A26G A29U A73G C96A U104G", "polymerase ribozyme fitness (log ratio)": -3.88}
{"variant": "C5U A22U C69A G88U", "polymerase ribozyme fitness (log ratio)": "≤ -4.2"}
{"variant": "C5U A16U C54U C87U G117A A119U", "polymerase ribozyme fitness (log ratio)": -1.75}
{"variant": "U6G A40U A115G", "polymerase ribozyme fitness (log ratio)": -1.66}
{"variant": "U6A A24C A40U A52U C57A A98U A115C", "polymerase ribozyme fitness (log ratio)": "≤ -4.2"}
{"variant": "U6G A22U C87U", "polymerase ribozyme fitness (log ratio)": 0.101}
{"variant": "U6G C35U G58C A73G G140U", "polymerase ribozyme fitness (log ratio)": "≤ -4.2"}
{"variant": "C5U A19G U135C G141U", "polymerase ribozyme fitness (log ratio)": -3.73}
{"variant": "U7A C35A A39U G50A G92U C95A U130A U135A", "polymerase ribozyme fitness (log ratio)": "≤ -4.2"}
{"variant": "C5G U6C C57A C85U", "polymerase ribozyme fitness (log ratio)": -1.26}
{"variant": "U6A A20C A49U A52C C79U C93A C118G", "polymerase ribozyme fitness (log ratio)": "≤ -4.2"}
{"variant": "U6G A21U U45C A66U G141A U151A", "polymerase ribozyme fitness (log ratio)": "≤ -4.2"}
{"variant": "U7A C54A G58C G92C A107U C116A", "polymerase ribozyme fitness (log ratio)": "≤ -4.2"}
{"variant": "U6G G62C U82G", "polymerase ribozyme fitness (log ratio)": -0.631}
{"variant": "C5G G50U G84U", "polymerase ribozyme fitness (log ratio)": -1.65}
{"variant": "U7G C38U", "polymerase ribozyme fitness (log ratio)": -2.77}
{"variant": "U7A G11U G50A A64G G68A C72U C87U A115U A122G C149A U151A", "polymerase ribozyme fitness (log ratio)": "≤ -4.2"}
{"variant": "U7G C93U A98G G141A", "polymerase ribozyme fitness (log ratio)": -3.82}
{"variant": "U6G A52C U55C G71A G86C A119U", "polymerase ribozyme fitness (log ratio)": "≤ -4.2"}
{"variant": "U6G C10G G68A C69U G84A", "polymerase ribozyme fitness (log ratio)": "≤ -4.2"}
{"variant": "U7C A41C C51U C54G U55A G58A C76G C87G C103A C125U", "polymerase ribozyme fitness (log ratio)": "≤ -4.2"}
{"variant": "C8A A23C C38U A142G", "polymerase ribozyme fitness (log ratio)": "≤ -4.2"}
{"variant": "U6G A16U C38U G83C U139A G141A", "polymerase ribozyme fitness (log ratio)": "≤ -4.2"}
{"variant": "U7A A28C C57U C87G C95U C125A", "polymerase ribozyme fitness (log ratio)": "≤ -4.2"}
{"variant": "U7A C32U C35U U90C G141C G143C", "polymerase ribozyme fitness (log ratio)": "≤ -4.2"}
{"variant": "U6A A12G A16U C43U G83A", "polymerase ribozyme fitness (log ratio)": "≤ -4.2"}
{"variant": "C5G G94C A122C", "polymerase ribozyme fitness (log ratio)": -1.03}
{"variant": "C5G G124C", "polymerase ribozyme fitness (log ratio)": -0.88}
{"variant": "U7A G62C", "polymerase ribozyme fitness (log ratio)": "≤ -4.2"}
{"variant": "U6G A73G", "polymerase ribozyme fitness (log ratio)": -0.521}
{"variant": "U6G A73C", "polymerase ribozyme fitness (log ratio)": -2.87}
{"variant": "C5G G80A", "polymerase ribozyme fitness (log ratio)": 0.101}
{"variant": "U6A C54U C85G A115C", "polymerase ribozyme fitness (log ratio)": -2.97}
{"variant": "U6A A17C A52U G84U A89C G141A", "polymerase ribozyme fitness (log ratio)": -3.87}
{"variant": "U7A A17U A24G U56A C93U U134A", "polymerase ribozyme fitness (log ratio)": "≤ -4.2"}
{"variant": "U7C G50A G58A G68A A97C G141C U146A", "polymerase ribozyme fitness (log ratio)": "≤ -4.2"}
{"variant": "C5U U139G", "polymerase ribozyme fitness (log ratio)": 0.221}
{"variant": "U6G U33A G42U C57U A64C C85G A107G G117C", "polymerase ribozyme fitness (log ratio)": "≤ -4.2"}
{"variant": "U6A U9A G92C C114A C118U C123G", "polymerase ribozyme fitness (log ratio)": "≤ -4.2"}
{"variant": "C5U C99U", "polymerase ribozyme fitness (log ratio)": 0.209}
{"variant": "U7A C72G G80C C96U U104C A122G U146A", "polymerase ribozyme fitness (log ratio)": "≤ -4.2"}
{"variant": "C5G G50C A122U C125U", "polymerase ribozyme fitness (log ratio)": -3.46}
{"variant": "U6G U31G A73G G86A A137U", "polymerase ribozyme fitness (log ratio)": "≤ -4.2"}
{"variant": "U6G A19G U44A U82C C95U U139G", "polymerase ribozyme fitness (log ratio)": "≤ -4.2"}
{"variant": "C5G C51A", "polymerase ribozyme fitness (log ratio)": -1.01}
{"variant": "U7A A37G A47C G59C C72U G84C G88A C108A G141C", "polymerase ribozyme fitness (log ratio)": "≤ -4.2"}
{"variant": "U7C U53A C85U", "polymerase ribozyme fitness (log ratio)": -3.46}
{"variant": "U6A A22C A39U U44A G70A C99A", "polymerase ribozyme fitness (log ratio)": "≤ -4.2"}
{"variant": "U7A A29C A41U G94C", "polymerase ribozyme fitness (log ratio)": "≤ -4.2"}
{"variant": "C5G G152C", "polymerase ribozyme fitness (log ratio)": -2.87}
{"variant": "C5G C87U A98G", "polymerase ribozyme fitness (log ratio)": -1.31}
{"variant": "C5G G50A G59C C76A G83A C103G C114A", "polymerase ribozyme fitness (log ratio)": "≤ -4.2"}
{"variant": "U7G U13A A17U A98U A107C U146C", "polymerase ribozyme fitness (log ratio)": "≤ -4.2"}
{"variant": "C5G U139A", "polymerase ribozyme fitness (log ratio)": -3.99}
{"variant": "U6G A12U", "polymerase ribozyme fitness (log ratio)": -0.722}
{"variant": "U6A C118G", "polymerase ribozyme fitness (log ratio)": -1.66}
{"variant": "C5G U7C U13A A16G C51U G92C A98G C114A", "polymerase ribozyme fitness (log ratio)": -4.13}
{"variant": "C5U C63G A73G G81C C105U A115C A138C", "polymerase ribozyme fitness (log ratio)": "≤ -4.2"}
{"variant": "U6C A49U C63G", "polymerase ribozyme fitness (log ratio)": -2.48}
{"variant": "U6A U45A", "polymerase ribozyme fitness (log ratio)": -2.51}
{"variant": "C5G C18G G48U U53A C103G", "polymerase ribozyme fitness (log ratio)": -3.62}
{"variant": "U6A A23C C76G G94A G141C G152U", "polymerase ribozyme fitness (log ratio)": "≤ -4.2"}
{"variant": "C5U C35U U77G C85G A89U A110C U144G", "polymerase ribozyme fitness (log ratio)": "≤ -4.2"}
{"variant": "U6A C35U C95G G100A", "polymerase ribozyme fitness (log ratio)": "≤ -4.2"}
{"variant": "U6A G25C G141A U146A", "polymerase ribozyme fitness (log ratio)": -2.69}
{"variant": "U7A A16U G58C G71C C93U A115C U134C", "polymerase ribozyme fitness (log ratio)": "≤ -4.2"}
{"variant": "C5G C10U C57U C95U", "polymerase ribozyme fitness (log ratio)": -2.04}
{"variant": "U7G U55C C99U", "polymerase ribozyme fitness (log ratio)": "≤ -4.2"}
{"variant": "C5U C14U A26U C118G A121U", "polymerase ribozyme fitness (log ratio)": -3.94}
{"variant": "C8A A19U G48C U56A C93U G140A A142G A150C", "polymerase ribozyme fitness (log ratio)": "≤ -4.2"}
{"variant": "C5G U15G A49U A91U C116A C149G", "polymerase ribozyme fitness (log ratio)": "≤ -4.2"}
{"variant": "U6G A98U", "polymerase ribozyme fitness (log ratio)": -0.985}
{"variant": "U7G A39U C69U C95U C129G", "polymerase ribozyme fitness (log ratio)": "≤ -4.2"}
{"variant": "U6C G74U U102A C123A", "polymerase ribozyme fitness (log ratio)": "≤ -4.2"}
{"variant": "C8A A29C A37C A47U A119G", "polymerase ribozyme fitness (log ratio)": "≤ -4.2"}
{"variant": "C5U C18G G59A C93U C132U", "polymerase ribozyme fitness (log ratio)": -2.33}
{"variant": "C5G G25U C27G A37G G46A U61A C96U", "polymerase ribozyme fitness (log ratio)": -4.17}
